Test results from PMC4245977 (Biochemistry, 2014).

Target: the molecule itself
Test: crystal structure

B1: AACC (C136A/C141A) double mutant of the Tn501 MerA (mercuric reductase) catalytic core (domain or fragment, Pseudomonas aeruginosa (Tn501))
chain: EPPVQVAVIGSGGAAMAAALKAVEQGAQVTLIERGTIGGTAVNVGAVPSKIMIRAAHIAHLRRESPFDGGIAATVPTIDRSKLLAQQQARVDELRHAKYEGILGGNPAITVVHGEARFKDDQSLTVRLNEGGERVVMFDRCLVATGASPAVPPIPGLKESPYWTSTEALASDTIPERLAVIGSSVVALELAQAFARLGSKVTVLARNTLFFREDPAIGEAVTAAFRAEGIEVLEHTQASQVAHMDGEFVLTTTHGELRADKLLVATGRTPNTRSLALDAAGVTVNAQGAIVIDQGMRTSNPNIYAAGDCTDQPQFVYVAAAAGTRAAINMTGGDAALDLTAMPAVVFTDPQVATVGYSEAEAHHDGIETDSRTLTLDNVPRALANFDTRGFIKLVIEEGSHRLIGVQAVAPEAGELIQTAALAIRNRMTVQELADQLFPYLTMVEGLKLAAQTFNKDVKQLSCCAG
B1: binds.
